Test results taken from publication PMC12412572, “Natural Allelic Variations in IbCHYR1–IbZnFR Complex Regulate Fusarium Root Rot Resistance in Sweet Potato”.

T1: IbZnFR (CCCH-type zinc-finger protein) (Ipomoea batatas, UniProt A0A6M2VA70 1-565)
T1 sequence: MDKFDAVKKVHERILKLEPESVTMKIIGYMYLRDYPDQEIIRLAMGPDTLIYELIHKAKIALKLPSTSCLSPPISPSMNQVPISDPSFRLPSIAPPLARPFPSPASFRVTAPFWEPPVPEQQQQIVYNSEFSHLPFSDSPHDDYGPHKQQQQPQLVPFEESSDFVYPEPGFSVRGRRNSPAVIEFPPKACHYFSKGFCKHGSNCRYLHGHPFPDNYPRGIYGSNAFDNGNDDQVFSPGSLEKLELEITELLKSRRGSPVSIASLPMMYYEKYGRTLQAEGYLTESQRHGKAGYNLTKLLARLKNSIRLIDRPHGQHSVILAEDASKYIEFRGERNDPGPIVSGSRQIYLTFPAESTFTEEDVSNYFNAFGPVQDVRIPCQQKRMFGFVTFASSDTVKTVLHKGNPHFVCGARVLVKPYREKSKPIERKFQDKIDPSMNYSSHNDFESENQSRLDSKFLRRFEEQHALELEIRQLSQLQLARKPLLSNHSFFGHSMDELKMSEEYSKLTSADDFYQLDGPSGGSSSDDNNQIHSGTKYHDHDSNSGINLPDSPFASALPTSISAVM

B1: IbMRL7L promoter wt probe (dsDNA)
DNA 1: CTTCTTATCCCTCTAACTTTCCTACA
DNA 2: TGTAGGAAAGTTAGAGGGATAAGAAG
B2: IbCSLE1 promoter wt probe (dsDNA)
DNA 1: ATAGTCTTTGTAGGGAGACACAGACACCAT
DNA 2: ATGGTGTCTGTGTCTCCCTACAAAGACTAT
B3: IbPR5 promoter wt probe (dsDNA)
DNA 1: ATTGTACTAAAAGGGAGAGGATACAAGGTT
DNA 2: AACCTTGTATCCTCTCCCTTTTAGTACAAT
B4: IbMDAR4 promoter wt probe (dsDNA)
DNA 1: ACATTTACCCGGGAGAACGGATAACG
DNA 2: CGTTATCCGTTCTCCCGGGTAAATGT
B5: IbCOMT promoter wt probe (dsDNA)
DNA 1: AAACCGTTCTCTCTCTTCTTCTTCATCTTC
DNA 2: GAAGATGAAGAAGAAGAGAGAGAACGGTTT

biological target: T1, IbZnFR (CCCH-type zinc-finger protein); assay: EMSA; LightShift Chemiluminescent EMSA Kit (Thermo), manufacturer's instructions; buffer, salt, pH and temperature not stated; settings: protein: recombinant; tags: His (pET-28a); label: 5' biotin; blunt

Binding result, binds:
B1
B2
B3
B4
B5
